Source: the supplement of paper PMC7877785
± gives the uncertainty stated by the source.

Assay: self-splicing fitness, log relative to wild type (ln ratio); higher = more splicing; Tetrahymena group I intron in knt gene, E. coli kanamycin selection, DiMSum; sequences stand for … in CUCUCU…GGAGGGAAAAGUUAUCAGGCAUGCACCUGGUAGCUAGUCUUUAAACCAAUAGAUUGCAUCGGUUUAAAAGGCAAGACCGUCAAAUUGCGGGAAAGGGGUCAACAGCCGUUCAGUACCAAGUCUCAGGGGAAACUUUGAGAUGGCCUUGCAAAGGGUAUGGUAAUAAGCUGACGGACAUGGUCCUAACCACGCAGCCAAGUCCUAAGUCAACAGAUCUUCUGUUGAUAUGGAUGCAGUUCACAGACUAAAUGUCGGUCGGGGAAGAUGUAUUCUUCUCAUAAGAUAUAGUCGGACCUCUCCUUAAUGGGAGCUAGCGGAUGAAGUGAUGCAACACUGGAGCCGCUGGGAACUAAUUUGUAUGCGAAAGUAUAUUGAUUAGUUUUGGAGUACUCGUGGUCG
How it was run: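 DiMSum derived fitness as the error-weighted combination of fold changes across replicates, kanamycin versus no kanamycin, normalised to wild type. E. coli BL21(DE3) held the library, which randomised all eight P1ex-region intron nucleotides within the knt kanamycin-resistance gene on pET-22b(+). Six replicate transformations grew overnight at 37°C or 30°C on LB agar with or without 25 μg/mL kanamycin, also containing 100 μg/mL carbenicillin, 50 μM IPTG and 0.2% rhamnose, and pooled colonies were amplicon-sequenced on an Illumina HiSeq 2500.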

Sequence | self-splicing fitness (ln) (30 °C) | self-splicing fitness (ln) (37 °C)
GCGUAGCAAUAUUACGCAGC | -3.61 ± 0.47 | -2.75 ± 0.38
GCGUAGCAAUAUUACGCCAA |  | -2.7 ± 0.48
GCGUAGCAAUAUUACGCUCA |  | -0.161 ± 0.23
GCGUAGCAAUAUUACGGAUC | -0.345 ± 0.079 | 0.215 ± 0.088
GCGUAGCAAUAUUACGGCGA | -0.0106 ± 0.13 | 0.378 ± 0.16
GCGUAGCAAUAUUACGGGCU | -3.57 ± 0.32 | -1.62 ± 0.2
GCGUAGCAAUAUUACGUAAG | -3.03 ± 0.23 | -2.66 ± 0.25
GCGUAGCAAUAUUACGUGGC | -3.48 ± 0.23 | -2.75 ± 0.31
GCUAAGCAAUAUUACGAAAA | -1.27 ± 0.15 | -1.6 ± 0.17
GCUAAGCAAUAUUACGAAAC | -1.17 ± 0.14 | -0.452 ± 0.2
GCUAAGCAAUAUUACGAAAG | -0.97 ± 0.14 | -1.09 ± 0.21
GCUAAGCAAUAUUACGAAGA | -0.925 ± 0.087 | -0.138 ± 0.098
GCUAAGCAAUAUUACGAAGG | -1.85 ± 0.11 | -0.743 ± 0.16
GCUAAGCAAUAUUACGACCG | -0.349 ± 0.17 | 0.0102 ± 0.24
GCUAAGCAAUAUUACGAUGU | -1.19 ± 0.072 | -0.496 ± 0.087
GCUAAGCAAUAUUACGCCGA | -2.09 ± 0.33 | -1.28 ± 0.2
GCUAAGCAAUAUUACGGAGA | -3.1 ± 0.21 | -2.49 ± 0.23
GCUAAGCAAUAUUACGGAUA | -2.45 ± 0.24 | -0.375 ± 0.18
GCUAAGCAAUAUUACGGCAC | -1.31 ± 0.19 | -0.55 ± 0.2
GCUAAGCAAUAUUACGGUAC | -1.47 ± 0.1 | -1.65 ± 0.2
GCUAAGCAAUAUUACGGUGG | -3.83 ± 0.23 | -1.82 ± 0.21
GCUAAGCAAUAUUACGUACC | -0.573 ± 0.11 | 0.246 ± 0.17
GCUCAGCAAUAUUACGACGU | 0.0949 ± 0.072 | 0.267 ± 0.079
GCUCAGCAAUAUUACGAGGU | -1.06 ± 0.12 | -2.08 ± 0.23
GCUCAGCAAUAUUACGCACU | 0.181 ± 0.11 | 0.213 ± 0.14

Sequence | self-splicing fitness (ln) (30 °C) | self-splicing fitness (ln) (37 °C)
GCUCAGCAAUAUUACGCCAG | -3.54 ± 0.26 | -1.83 ± 0.3
GCUCAGCAAUAUUACGCCCG |  | -0.341 ± 0.44
GCUCAGCAAUAUUACGCGAG | -2.78 ± 0.13 | -2.18 ± 0.17
GCUCAGCAAUAUUACGCGUG | -1.99 ± 0.07 | -1.79 ± 0.089
GCUCAGCAAUAUUACGCUAA | -2.11 ± 0.11 | -0.785 ± 0.11
GCUCAGCAAUAUUACGCUCG | -1.1 ± 0.11 | -1.31 ± 0.18
GCUCAGCAAUAUUACGCUUC | -1.9 ± 0.077 | -0.102 ± 0.081
GCUCAGCAAUAUUACGGCCU | -1.6 ± 0.14 | -0.188 ± 0.16
GCUCAGCAAUAUUACGGGGC | -3.56 ± 0.2 | -1.98 ± 0.2
GCUCAGCAAUAUUACGGUAA | -1.52 ± 0.13 | -0.551 ± 0.11
GCUCAGCAAUAUUACGUGGU | -1.88 ± 0.13 | -1.31 ± 0.17
GCUCAGCAAUAUUACGUUAC | -1.56 ± 0.12 | -1.65 ± 0.14
GCUCAGCAAUAUUACGUUAU | -1.08 ± 0.12 | -0.166 ± 0.12
GCUCAGCAAUAUUACGUUCG | -1.13 ± 0.065 | -0.838 ± 0.074
GCUCAGCAAUAUUACGUUUG | -2.64 ± 0.13 | -1.8 ± 0.15
GCUGAGCAAUAUUACGAACC | -1.08 ± 0.14 | -0.236 ± 0.18
GCUGAGCAAUAUUACGAAUG |  | -1.4 ± 0.37
GCUGAGCAAUAUUACGACAC | -1.67 ± 0.14 | -1.1 ± 0.18
GCUGAGCAAUAUUACGACGA |  | -0.876 ± 0.39
GCUGAGCAAUAUUACGCGGG | -2.93 ± 0.14 | -1.19 ± 0.14
GCUGAGCAAUAUUACGCUGU |  | -2.51 ± 0.49
GCUGAGCAAUAUUACGGAUU | -2.33 ± 0.1 | -1.26 ± 0.11
GCUGAGCAAUAUUACGGCAC | -0.439 ± 0.24 | -1.28 ± 0.39
GCUGAGCAAUAUUACGGCGG | -1.79 ± 0.22 | 
GCUGAGCAAUAUUACGGCUC |  | -1.71 ± 0.25

Sequence | self-splicing fitness (ln) (30 °C) | self-splicing fitness (ln) (37 °C)
GCUGAGCAAUAUUACGGGAG | -2.58 ± 0.35 | -2.15 ± 0.3
GCUGAGCAAUAUUACGGUAC | -2.15 ± 0.22 | -2.77 ± 0.29
GCUGAGCAAUAUUACGGUUU | -1.86 ± 0.075 | -1.25 ± 0.095
GCUGAGCAAUAUUACGUCCA | -1.97 ± 0.27 | -2.32 ± 0.37
GCUGAGCAAUAUUACGUCUG | -2.08 ± 0.14 | -0.981 ± 0.14
GCUGAGCAAUAUUACGUGAU | -1.02 ± 0.1 | -1.13 ± 0.14
GCUGAGCAAUAUUACGUGGU | -3.63 ± 0.32 | -2.22 ± 0.4
GCUGAGCAAUAUUACGUUCG | -2.34 ± 0.12 | -1.17 ± 0.12
GCUGAGCAAUAUUACGUUUG | -2.85 ± 0.17 | -2.76 ± 0.25
GCUUAGCAAUAUUACGACCA | -1.45 ± 0.2 | -1.29 ± 0.38
GCUUAGCAAUAUUACGACGU | -0.576 ± 0.13 | 0.408 ± 0.16
GCUUAGCAAUAUUACGACUA | -1.34 ± 0.22 | -0.593 ± 0.2
GCUUAGCAAUAUUACGAGGA | -0.769 ± 0.11 | -0.781 ± 0.1
GCUUAGCAAUAUUACGAUAU | -1.67 ± 0.18 | -0.39 ± 0.17
GCUUAGCAAUAUUACGAUUA | -1.01 ± 0.11 | -1.03 ± 0.1
GCUUAGCAAUAUUACGCAGA | -2.62 ± 0.22 | -3.24 ± 0.43
GCUUAGCAAUAUUACGCGAU | -3.45 ± 0.34 | -1.69 ± 0.29
GCUUAGCAAUAUUACGCGCA | -1.37 ± 0.16 | 0.00629 ± 0.17
GCUUAGCAAUAUUACGCGGA | -1.32 ± 0.071 | -0.345 ± 0.071
GCUUAGCAAUAUUACGCUCA | -1.34 ± 0.23 | -0.203 ± 0.22
GCUUAGCAAUAUUACGCUGG |  | -2.13 ± 0.3
GCUUAGCAAUAUUACGGCUC | -0.359 ± 0.098 | 0.0516 ± 0.12
GCUUAGCAAUAUUACGGGAA | -0.679 ± 0.12 | 0.196 ± 0.11
GCUUAGCAAUAUUACGGGCA | -2.24 ± 0.27 | -0.778 ± 0.19
GCUUAGCAAUAUUACGGUGA | -1.46 ± 0.092 | -1.75 ± 0.1

Sequence | self-splicing fitness (ln) (30 °C) | self-splicing fitness (ln) (37 °C)
GCUUAGCAAUAUUACGUAAA | -0.47 ± 0.084 | 0.317 ± 0.1
GCUUAGCAAUAUUACGUCCG | -1.68 ± 0.19 | -1.43 ± 0.24
GCUUAGCAAUAUUACGUGAC | -1.54 ± 0.09 | -1.08 ± 0.13
GCUUAGCAAUAUUACGUGUC | -1.23 ± 0.14 | -0.348 ± 0.14
GCUUAGCAAUAUUACGUUGU | -1.5 ± 0.066 | -0.844 ± 0.093
GGAAAGCAAUAUUACGACGG | -4.1 ± 0.39 | -2.12 ± 0.4
GGAAAGCAAUAUUACGACUU | -0.349 ± 0.1 | -0.0565 ± 0.11
GGAAAGCAAUAUUACGAGAG | -4.25 ± 0.26 | -0.533 ± 0.1
GGAAAGCAAUAUUACGAGGU | -3.65 ± 0.17 | -2.87 ± 0.25
GGAAAGCAAUAUUACGAUAC | 0.424 ± 0.17 | -0.511 ± 0.35
GGAAAGCAAUAUUACGAUCC | -3.2 ± 0.39 | 
GGAAAGCAAUAUUACGAUCG | -0.227 ± 0.084 | -0.145 ± 0.12
GGAAAGCAAUAUUACGAUGU | -1.69 ± 0.094 | -0.262 ± 0.13
GGAAAGCAAUAUUACGCACA | -0.416 ± 0.091 | 0.0226 ± 0.14
GGAAAGCAAUAUUACGCCGU | -1.5 ± 0.26 | 0.351 ± 0.28
GGAAAGCAAUAUUACGCGCC | -3.03 ± 0.49 | -2.17 ± 0.42
GGAAAGCAAUAUUACGCGGG | -2.64 ± 0.18 | -1.5 ± 0.18
GGAAAGCAAUAUUACGCGUC | -3.58 ± 0.22 | -2.89 ± 0.23
GGAAAGCAAUAUUACGCUCG | -0.352 ± 0.15 | 0.329 ± 0.17
GGAAAGCAAUAUUACGGAAA | -2.04 ± 0.22 | -1.25 ± 0.24
GGAAAGCAAUAUUACGGAAG | -4.32 ± 0.22 | -1.93 ± 0.15
GGAAAGCAAUAUUACGGCCU | -1.71 ± 0.15 | -0.809 ± 0.21
GGAAAGCAAUAUUACGGCUG | -0.471 ± 0.12 | -0.348 ± 0.17
